Reference: patent US20240116985A1, “STAPLED PEPTIDES AND METHODS THEREOF” (priority 2020, published 2024)
Starred links: 1 amine or outer side, 2 acyl side, 3 side chain; linkers in the order of their positions; H or OH if unused. Positions of bridges follow the written chain, without caps; N, C: chain ends. Non-standard residues stand in square brackets, D forms with d. Primed or numbered codes have the meaning given here. No end group written: not given here. (CH2CMe2CO2H)TriAzDap = (S)-3-(1-(2-amino-2-carboxyethyl)-1H-1,2,3-triazol-4-yl)-2,2-dimethylpropanoic acid, CC(C)(Cc1cn(C[C@H](N[*:1])C(=O)[*:2])nn1)C(=O)[*:3]; (CMe2CO2H)TriAzDap = (S)-2-amino-3-(4-(2-carboxypropan-2-yl)-1H-1,2,3-triazol-1-yl)propanoic acid, CC(C)(C(=O)[*:3])c1cn(C[C@H](N[*:1])C(=O)[*:2])nn1; PyrS2″ = (S)-3-amino-1-((pent-4-en-1-yloxy)carbonyl)pyrrolidine-3-carboxylic acid (stapling residue), C=CCCCOC(=O)N1CC[C@@](N[*:1])(C(=O)[*:2])C1; (CH2CH2CO2H)TriAzDap = (S)-2-amino-3-(4-(2-carboxyethyl)-1H-1,2,3-triazol-1-yl)propanoic acid, O=C([C@H](Cn1cc(CCC(=O)[*:3])nn1)N[*:1])[*:2]; B5(4) = 2,2-bis(4-pentenyl)glycine = 2-amino-2-(pent-4-en-1-yl)hept-6-enoic acid (stitching residue), C=CCCCC(CCCC=C)(N[*:1])C(=O)[*:2]; B5(5) = 2,2-bis(4-pentenyl)glycine, 2-amino-2-(pent-4-en-1-yl)hept-6-enoic acid (stitching residue), C=CCCCC(CCCC=C)(N[*:1])C(=O)[*:2]; PyrS2 = (S)-3-amino-1-((pent-4-en-1-yloxy)carbonyl)pyrrolidine-3-carboxylic acid, C=CCCCOC(=O)N1CC[C@@](N[*:1])(C(=O)[*:2])C1; (3C)TriAzLys = (S)-2-amino-6-(4-propyl-1H-1,2,3-triazol-1-yl)hexanoic acid, CCCc1cn(CCCC[C@H](N[*:1])C(=O)[*:2])nn1; B5(13) = 2-amino-2-(pent-4-en-1-yl)hept-6-enoic acid (two alkene chains), C=CCCCC(CCCC=C)(N[*:1])C(=O)[*:2]; PyrS2(5) = (S)-3-amino-1-((alkenyloxy)carbonyl)pyrrolidine-3-carboxylic acid, carbamate stapling residue; 2COOHF = (S)-2-(2-amino-2-carboxyethyl)benzoic acid, O=C([C@H](Cc1ccccc1C(=O)[*:3])N[*:1])[*:2]; B5(3) = 2,2-bis(4-pentenyl)glycine (stitching residue), C=CCCCC(CCCC=C)(N[*:1])C(=O)[*:2]; Phe(3-COOH) = N[C@@H](Cc1cccc(C(=O)O)c1)C(=O)O; 2F3MeF = Cc1cccc(C[C@H](N[*:1])C(=O)[*:2])c1F; Phe(2-CF3) = N[C@@H](Cc1ccccc1C(F)(F)F)C(=O)O; Phe(2-Cl) = N[C@@H](Cc1ccccc1Cl)C(=O)O; Phe(2-OMe) = COc1ccccc1C[C@H](N)C(=O)O; 2Nal = N[C@@H](Cc1ccc2ccccc2c1)C(=O)O; Bta = N[C@@H](Cc1csc2ccccc12)C(=O)O; Lys(iPr) = CC(C)NCCCC[C@H](N)C(=O)O; αAllylPro = C=CC[C@@]1(C(=O)O)CCCN1; tBuAla = CC(C)(C)C[C@H](N)C(=O)O; 2Thi = N[C@@H](Cc1cccs1)C(=O)O; 3Thi = N[C@@H](Cc1ccsc1)C(=O)O; Cha = N[C@@H](CC1CCCCC1)C(=O)O; S8 = C=CCCCCCC[C@](C)(N)C(=O)O; Thr(ol) = C[C@@H](O)[C@H](N)CO

What was measured:
[1] = target: full-length beta-Catenin (Uniprot ID P35222) (Homo sapiens (Human)) (UniProt P35222); test: fluorescence polarization competition against 5FAM-TCF4 10-53 on full-length beta-catenin
Target sequence in this assay (P35222 whole entry, one chain of several): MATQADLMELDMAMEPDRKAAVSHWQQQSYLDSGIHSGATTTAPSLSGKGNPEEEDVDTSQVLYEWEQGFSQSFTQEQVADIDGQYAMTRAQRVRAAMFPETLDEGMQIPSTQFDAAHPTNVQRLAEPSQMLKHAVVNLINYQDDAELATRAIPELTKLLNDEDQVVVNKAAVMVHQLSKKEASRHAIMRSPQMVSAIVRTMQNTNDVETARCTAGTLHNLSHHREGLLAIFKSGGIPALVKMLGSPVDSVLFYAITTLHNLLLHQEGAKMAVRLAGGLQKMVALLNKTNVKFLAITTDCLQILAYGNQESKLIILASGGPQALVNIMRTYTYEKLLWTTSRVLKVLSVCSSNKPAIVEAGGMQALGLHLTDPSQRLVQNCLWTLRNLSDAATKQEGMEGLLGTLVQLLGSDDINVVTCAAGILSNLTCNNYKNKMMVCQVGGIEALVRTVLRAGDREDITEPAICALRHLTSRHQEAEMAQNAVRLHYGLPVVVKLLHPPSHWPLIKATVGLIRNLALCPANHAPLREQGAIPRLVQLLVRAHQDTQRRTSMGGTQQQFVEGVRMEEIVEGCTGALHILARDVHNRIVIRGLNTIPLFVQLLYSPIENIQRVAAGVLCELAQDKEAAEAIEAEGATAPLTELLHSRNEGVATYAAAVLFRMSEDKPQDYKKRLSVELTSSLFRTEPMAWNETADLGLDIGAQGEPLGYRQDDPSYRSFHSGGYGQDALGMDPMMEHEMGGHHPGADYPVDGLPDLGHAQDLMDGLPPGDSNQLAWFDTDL

Bcat-Halo [2] = target: Bcat-Halo (UniProt P35222); test: NanoBRET Abs IC50, HEK293 cells, B-cat-Halo / TCF4-Luc engagement
Bcat-Halo, sequence (P35222 whole entry): as the sequence (P35222 whole entry, one chain of several) above

Bcat-Halo [3] = target: Bcat-Halo (UniProt P35222); test: NanoBRET in HEK293 cells, Bcat-Halo / TCF4-Luc; absolute IC50
[4] = target: full-length beta-Catenin (Uniprot ID P35222) (Homo sapiens (Human)) (UniProt P35222); test: fluorescence polarization competition; 10 nM full-length beta-catenin, 10 nM 5FAM-TCF4(10-53) probe
Target sequence in this assay (P35222 2-781 limits assumed): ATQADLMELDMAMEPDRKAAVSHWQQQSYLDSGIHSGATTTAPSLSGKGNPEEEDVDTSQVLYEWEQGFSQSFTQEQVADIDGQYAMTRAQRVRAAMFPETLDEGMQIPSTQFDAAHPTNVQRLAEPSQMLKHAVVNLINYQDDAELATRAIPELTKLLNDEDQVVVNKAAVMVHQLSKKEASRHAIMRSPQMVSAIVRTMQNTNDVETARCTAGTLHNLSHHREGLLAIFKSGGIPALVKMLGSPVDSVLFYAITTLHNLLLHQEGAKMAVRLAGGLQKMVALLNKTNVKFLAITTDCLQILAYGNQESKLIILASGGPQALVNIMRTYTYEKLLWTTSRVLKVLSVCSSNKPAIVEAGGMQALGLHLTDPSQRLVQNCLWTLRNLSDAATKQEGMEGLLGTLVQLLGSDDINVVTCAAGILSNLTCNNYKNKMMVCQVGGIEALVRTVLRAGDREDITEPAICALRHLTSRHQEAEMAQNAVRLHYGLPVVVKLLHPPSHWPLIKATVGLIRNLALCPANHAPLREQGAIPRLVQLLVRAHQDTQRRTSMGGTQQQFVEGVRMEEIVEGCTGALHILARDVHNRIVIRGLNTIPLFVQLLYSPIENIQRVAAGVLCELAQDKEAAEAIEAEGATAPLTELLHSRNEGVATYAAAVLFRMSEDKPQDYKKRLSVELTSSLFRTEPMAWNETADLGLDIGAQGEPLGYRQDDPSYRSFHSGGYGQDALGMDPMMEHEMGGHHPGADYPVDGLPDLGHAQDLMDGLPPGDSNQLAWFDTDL

[5] = target: full-length beta-Catenin (Uniprot ID P35222) (Homo sapiens (Human)) (UniProt P35222); test: FP competition; full-length beta-catenin, competitor 5FAM-TCF4(10-53)
Target sequence in this assay (P35222 whole entry, one chain of several): as the sequence (P35222 whole entry, one chain of several) above

Bcat-Halo [6] = target: Bcat-Halo (UniProt P35222); test: NanoBRET Abs IC50, HEK293 cells; B-cat-Halo/TCF4-Luc engagement, competitor TCF4-Luc
[7] = target: full-length beta-Catenin (Uniprot ID P35222) (Homo sapiens (Human)) (UniProt P35222); test: fluorescence polarization competition; full-length beta-catenin with 5FAM-TCF4(10-53) probe as competitor
Target sequence in this assay (P35222 2-781 limits assumed): as the sequence (P35222 2-781 limits assumed) above

Bcat-Halo [8] = target: Bcat-Halo (UniProt P35222); test: NanoBRET absolute IC50, HEK293 cells, Bcat-Halo/TCF4-Luc engagement
[9] = target: full-length beta-Catenin (Uniprot ID P35222) (Homo sapiens (Human)) (UniProt P35222); test: FP competition, full-length beta-catenin, competitor probe 5FAM-TCF4 10-53
Target sequence in this assay (P35222 2-781 limits assumed): as above

[10] = target: B-cat-Halo (beta-catenin HaloTag NanoBRET construct expressed in HEK293 cells) (UniProt P35222); test: NanoBRET in HEK293 cells, Bcat-Halo + TCF4-Luc (competitor partner TCF4)
B-cat-Halo (beta-catenin HaloTag NanoBRET construct expressed in HEK293 cells), sequence (P35222 whole entry): as the sequence (P35222 whole entry, one chain of several) above

[11] = target: full-length beta-Catenin (Uniprot ID P35222) (Homo sapiens (Human)) (UniProt P35222); test: fluorescence polarization competition; peptide displaces 5FAM-TCF4(10-53) from full-length beta-catenin
Target sequence in this assay (P35222 2-781 limits assumed): as the sequence (P35222 2-781 limits assumed) above

[12] = target: full-length beta-Catenin (Uniprot ID P35222) (Homo sapiens (Human)) (UniProt P35222); test: fluorescence polarization competition: peptide titrated against 10 nM full-length beta-catenin + 10 nM 5FAM-TCF4(10-53) probe
Target sequence in this assay (P35222 2-781 limits assumed): as above

[13] = target: B-cat-Halo (beta-catenin HaloTag NanoBRET construct expressed in HEK293 cells) (UniProt P35222); test: NanoBRET in HEK293 cells, Bcat-Halo + TCF4-Luc, peptide at 10 uM
[14] = target: B-cat-Halo (NanoBRET construct) (UniProt P35222); test: NanoBRET Abs IC50; Bcat-Halo/TCF4-Luc in HEK293 cells, competitor TCF4-Luc
B-cat-Halo (NanoBRET construct), sequence (P35222 whole entry): as the sequence (P35222 whole entry, one chain of several) above

[15] = target: full-length beta-Catenin (Uniprot ID P35222) (Homo sapiens (Human)) (UniProt P35222); test: fluorescence polarization competition; full-length beta-catenin, 5FAM-TCF4(10-53) probe
Target sequence in this assay (P35222 whole entry, one chain of several): as above

[16] = target: full-length beta-Catenin (Uniprot ID P35222) (Homo sapiens (Human)) (UniProt P35222); test: AlphaScreen competition vs biotin-TCF4(10-53) on full-length beta-catenin
Target sequence in this assay (P35222 whole entry, one chain of several): as above

[17] = target: full-length beta-Catenin (Uniprot ID P35222) (Homo sapiens (Human)) (UniProt P35222); test: fluorescence polarization competition; 10 nM full-length beta-catenin with 10 nM 5FAM-TCF4(10-53) probe as competitor
Target sequence in this assay (P35222 2-781 limits assumed): as the sequence (P35222 2-781 limits assumed) above

For Ac-[αAllylPro]D[tBuAla][B5(4)]DDAAFL[PyrS2″][3Thi][Bta][(3C)TriAzLys]-NH2 (staple 1-4, 4-11) [I-2375], the IC50 [1] was 5 nM and the IC50 (Bcat-Halo [2]) was 13500 nM.

In the case of Ac-[αAllylPro]D[tBuAla][B5(5)]D[2COOHF]AAFF[PyrS2″][Phe(2-Cl)][Bta]Q-NH2 (staple 1-4, 4-11) [I-1657], the IC50 (Bcat-Halo [3]) is reported as 11000 nM and the IC50 [4] is reported as 36 nM.

[αAllylPro]D[tBuAla][B5(4)]DDAAFS[PyrS2″]F[Bta]S-NH2 (staple 1-4, 4-11) [I-1357] showed an EC50 [5] of 10 nM, an IC50 (Bcat-Halo [6]) of 33600 nM and an IC50 [7] of 10 nM.

[αAllylPro]D[tBuAla][B5(4)]DDAAFS[PyrS2″]F[Bta]S-NH2 (staple 1-4, 4-11; not fully specified; printed as PL3-Asp-Npg-B5-Asp-Asp-Ala-Ala-Phe-Ser-PyrS2-Phe-BztA-Ser-NH2) [I-1356] was tested, and the EC50 [5] was 23 nM, the IC50 (Bcat-Halo [6]) was > 20000 nM and the IC50 [7] was 23 nM.

Binder Ac-[αAllylPro]D[tBuAla][B5(5)]D[2COOHF]AAFF[PyrS2″][2F3MeF][Bta]Q-NH2 (staple 1-4, 4-11) [I-1655] has an IC50 (Bcat-Halo [3]) of 12700 nM and an IC50 [4] of 48 nM.

Work on Ac-[αAllylPro]D[tBuAla][B5(5)]D[2COOHF]AAFF[PyrS2″][2F3MeF][Bta]S-NH2 (staple 1-4, 4-11) [I-1659] yielded an IC50 (Bcat-Halo [3]) of 11400 nM and an IC50 [4] of 108 nM.

Ac-[αAllylPro]D[tBuAla][B5(4)]D[(CMe2CO2H)TriAzDap]QAFL[PyrS2″][Phe(2-CF3)][Bta]A-NH2 (staple 1-4, 4-11) [I-2369] gave an IC50 [1] of 14 nM and an IC50 (Bcat-Halo [2]) of 9500 nM.

[αAllylPro]D[tBuAla][B5(4)]DDAAFF[PyrS2″][2Thi][Bta]Q-NH2 (staple 1-4, 4-11) [I-1345] was tested, and the EC50 [5] was 15 nM, the IC50 (Bcat-Halo [6]) was 4700 nM and the IC50 (Bcat-Halo [8]) was 4700 nM. The IC50 [9] was 15 nM.

Ac-[αAllylPro]D[tBuAla][B5(13)]DDAAFN[PyrS2][Phe(2-OMe)][Bta]H-NH2 (staple 1-4, 4-11) [I-781] was tested, and the IC50 [10] was 11600 nM, the IC50 [11] was 5 nM and the EC50 [12] was 5 nM. For the same binder, the NanoBRET % inh @ 10 uM [13] was 24%.

Ac-[αAllylPro]D[tBuAla][B5(5)]D[2COOHF]AAFF[PyrS2″][3Thi][Bta]S-NH2 (staple 1-4, 4-11) [I-1664] showed an IC50 [14] of 8000 nM and an IC50 [15] of 22 nM.

For Ac-[αAllylPro]D[tBuAla][B5(5)]D[Phe(3-COOH)]AAFL[PyrS2″][Phe(2-CF3)][Bta]QLV-NH2 (staple 1-4, 4-11) [I-2379], the IC50 [1] was 246 nM and the IC50 (Bcat-Halo [2]) was 5000 nM.

For Ac-[αAllylPro]D[tBuAla][B5(5)]DEAAFN[PyrS2][3Thi][Bta]-NH2 (staple 1-4, 4-11) [I-786], the IC50 [10] was 17100 nM, the IC50 [11] was 8 nM and the EC50 [12] was 8 nM.

Work on Ac-[αAllylPro]D[tBuAla][B5(5)]D[2COOHF]AAFF[PyrS2″][3Thi][Bta][Thr(ol)] (staple 1-4, 4-11; also: staple isomer, earlier-eluting HPLC peak) [I-1668] yielded an IC50 [14] of 16400 nM and an IC50 [15] of 29 nM.

Ac-[αAllylPro]DA[B5(4)]D[2Nal]AAFQ[S8]F[Bta]A-NH2 (staple 1-4, 4-11) [I-296] was tested, and the EC50 [16] was 1910 nM.

Work on Ac-[αAllylPro]D[tBuAla][B5(5)]DDAAFN[PyrS2][Phe(2-Cl)][Bta]H-NH2 (staple 1-4, 4-11) [I-784] yielded an IC50 [10] of 12100 nM, an IC50 [11] of 6 nM and an EC50 [12] of 6 nM. It also gave a NanoBRET % inh @ 10 uM [13] of 35.1%.

Ac-[αAllylPro]D[tBuAla][B5(5)]D[2COOHF]AAFF[PyrS2″][Phe(2-Cl)][Bta]S-NH2 (staple 1-4, 4-11) [I-1662] gave an IC50 [14] of 12000 nM and an IC50 [15] of 69 nM.

For Ac-[αAllylPro]D[tBuAla][B5(5)]D[2COOHF]AAFF[PyrS2(5)][3Thi][Bta][Thr(ol)] (staple 1-4, 4-11; also: staple isomer, later-eluting HPLC peak) [I-1669], the IC50 [14] was 11800 nM and the IC50 [15] was 30 nM.

Ac-[αAllylPro]D[tBuAla][B5(4)]DDAAF[Phe(2-CF3)][PyrS2][3Thi][Bta]Q-NH2 (staple 1-4, 4-11) [I-1363] gave an EC50 [5] of 9 nM, an IC50 (Bcat-Halo [6]) of 5500 nM and an IC50 [7] of 9 nM.

With Ac-[αAllylPro]D[tBuAla][B5(3)]DDAAFF[PyrS2″][3Thi][Bta]Q-NH2 (staple 1-4, 4-11) [I-807] the IC50 [10] was 5300 nM, the IC50 [17] was 5 nM and the EC50 [12] was 5 nM.

With Ac-[αAllylPro]N[Cha][B5(4)]DQ[Lys(iPr)]AFL[PyrS2]F[Bta]Q-NH2 (staple 1-4, 4-11) [I-1648] the IC50 (Bcat-Halo [3]) was > 20000 nM and the IC50 [4] was 191 nM.

With Ac-[αAllylPro]D[tBuAla][B5(4)]D[(CH2CH2CO2H)TriAzDap]QAFL[PyrS2″][Phe(2-CF3)][Bta]A-NH2 (staple 1-4, 4-11) [I-2367] the IC50 [1] was 7 nM and the IC50 (Bcat-Halo [2]) was 6200 nM.

Binder Ac-[αAllylPro]D[tBuAla][B5(5)]D[2COOHF]AAFF[PyrS2″][3Thi][Bta]S-NH2 (staple 1-4, 4-11) [I-1665] has an IC50 [14] of 9700 nM and an IC50 [15] of 17 nM.

For Ac-[αAllylPro]DA[B5(4)]D[2Nal]AAFV[S8]F[Bta]Q-NH2 (staple 1-4, 4-11) [I-297], the EC50 [16] was 5810 nM.

Ac-[αAllylPro]D[tBuAla][B5(4)]D[(CH2CMe2CO2H)TriAzDap]QAFL[PyrS2″][Phe(2-CF3)][Bta]A-NH2 (staple 1-4, 4-11) [I-2368] was tested, and the IC50 [1] was 5 nM and the IC50 (Bcat-Halo [2]) was 5000 nM.

For Ac-[αAllylPro]DA[B5(4)]D[2Nal]AAFS[S8]F[Bta]Q-NH2 (staple 1-4, 4-11) [I-298], the EC50 [16] was 3860 nM.
